Laboratory results as given in PMC12416549 (2024).

T1: TNFR1 (Homo sapiens, UniProt P19438)
T1 chain: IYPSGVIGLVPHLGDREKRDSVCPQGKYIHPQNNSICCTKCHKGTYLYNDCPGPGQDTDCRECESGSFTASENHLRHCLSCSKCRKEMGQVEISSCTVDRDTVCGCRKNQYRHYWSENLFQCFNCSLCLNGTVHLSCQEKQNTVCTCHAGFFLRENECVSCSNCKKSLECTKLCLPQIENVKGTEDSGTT


Molecular target: T1, TNFR1
Experiment: yeast display SC50

| Binder | apparent Kd (screen) [nM] |
| --- | --- |
| K62T (designed binder) MTLQELLREEALRRAEAEAFRYALELLAEKFPEQKEYLLDLAEEIESQIRSLSGVDVEDVRTFLDKEWAWVKELLAEHPAELAEVEAARAARLAELRAEVEAKVAA | 0.539 |
| S47C (designed binder) MTLQELLREEALRRAEAEAFRYALELLAEKFPEQKEYLLDLAEEIECQIRSLSGVDVEDVRKFLDKEWAWVKELLAEHPAELAEVEAARAARLAELRAEVEAKVAA | 0.718 |
| E29Q (designed binder) MTLQELLREEALRRAEAEAFRYALELLAQKFPEQKEYLLDLAEEIESQIRSLSGVDVEDVRKFLDKEWAWVKELLAEHPAELAEVEAARAARLAELRAEVEAKVAA | 0.539 |
| L7Y (designed binder) MTLQELYREEALRRAEAEAFRYALELLAEKFPEQKEYLLDLAEEIESQIRSLSGVDVEDVRKFLDKEWAWVKELLAEHPAELAEVEAARAARLAELRAEVEAKVAA | 12.5 |
| E99V (designed binder) MTLQELLREEALRRAEAEAFRYALELLAEKFPEQKEYLLDLAEEIESQIRSLSGVDVEDVRKFLDKEWAWVKELLAEHPAELAEVEAARAARLAELRAVVEAKVAA | 0.446 |
| A83G (designed binder) MTLQELLREEALRRAEAEAFRYALELLAEKFPEQKEYLLDLAEEIESQIRSLSGVDVEDVRKFLDKEWAWVKELLAEHPAELGEVEAARAARLAELRAEVEAKVAA | 0.539 |
| V104N (designed binder) MTLQELLREEALRRAEAEAFRYALELLAEKFPEQKEYLLDLAEEIESQIRSLSGVDVEDVRKFLDKEWAWVKELLAEHPAELAEVEAARAARLAELRAEVEAKNAA | 0.593 |
| L64P (designed binder) MTLQELLREEALRRAEAEAFRYALELLAEKFPEQKEYLLDLAEEIESQIRSLSGVDVEDVRKFPDKEWAWVKELLAEHPAELAEVEAARAARLAELRAEVEAKVAA | 3.99 |
| A91T (designed binder) MTLQELLREEALRRAEAEAFRYALELLAEKFPEQKEYLLDLAEEIESQIRSLSGVDVEDVRKFLDKEWAWVKELLAEHPAELAEVEAARATRLAELRAEVEAKVAA | 0.593 |
| K35G (designed binder) MTLQELLREEALRRAEAEAFRYALELLAEKFPEQGEYLLDLAEEIESQIRSLSGVDVEDVRKFLDKEWAWVKELLAEHPAELAEVEAARAARLAELRAEVEAKVAA | 0.49 |
| W70P (designed binder) MTLQELLREEALRRAEAEAFRYALELLAEKFPEQKEYLLDLAEEIESQIRSLSGVDVEDVRKFLDKEWAPVKELLAEHPAELAEVEAARAARLAELRAEVEAKVAA | 11.4 |
| H78N (designed binder) MTLQELLREEALRRAEAEAFRYALELLAEKFPEQKEYLLDLAEEIESQIRSLSGVDVEDVRKFLDKEWAWVKELLAENPAELAEVEAARAARLAELRAEVEAKVAA | 0.539 |
| S47L (designed binder) MTLQELLREEALRRAEAEAFRYALELLAEKFPEQKEYLLDLAEEIELQIRSLSGVDVEDVRKFLDKEWAWVKELLAEHPAELAEVEAARAARLAELRAEVEAKVAA | 0.653 |
| V55P (designed binder) MTLQELLREEALRRAEAEAFRYALELLAEKFPEQKEYLLDLAEEIESQIRSLSGPDVEDVRKFLDKEWAWVKELLAEHPAELAEVEAARAARLAELRAEVEAKVAA | 0.653 |
| S51G (designed binder) MTLQELLREEALRRAEAEAFRYALELLAEKFPEQKEYLLDLAEEIESQIRGLSGVDVEDVRKFLDKEWAWVKELLAEHPAELAEVEAARAARLAELRAEVEAKVAA | 1.69 |
| L26K (designed binder) MTLQELLREEALRRAEAEAFRYALEKLAEKFPEQKEYLLDLAEEIESQIRSLSGVDVEDVRKFLDKEWAWVKELLAEHPAELAEVEAARAARLAELRAEVEAKVAA | 0.718 |
| Y22G (designed binder) MTLQELLREEALRRAEAEAFRGALELLAEKFPEQKEYLLDLAEEIESQIRSLSGVDVEDVRKFLDKEWAWVKELLAEHPAELAEVEAARAARLAELRAEVEAKVAA | 0.653 |
| Q34V (designed binder) MTLQELLREEALRRAEAEAFRYALELLAEKFPEVKEYLLDLAEEIESQIRSLSGVDVEDVRKFLDKEWAWVKELLAEHPAELAEVEAARAARLAELRAEVEAKVAA | 0.405 |

| Binder | apparent Kd (screen) [nM] |
| --- | --- |
| E95T (designed binder) MTLQELLREEALRRAEAEAFRYALELLAEKFPEQKEYLLDLAEEIESQIRSLSGVDVEDVRKFLDKEWAWVKELLAEHPAELAEVEAARAARLATLRAEVEAKVAA | 0.539 |
| R61Q (designed binder) MTLQELLREEALRRAEAEAFRYALELLAEKFPEQKEYLLDLAEEIESQIRSLSGVDVEDVQKFLDKEWAWVKELLAEHPAELAEVEAARAARLAELRAEVEAKVAA | 0.539 |
| Q48G (designed binder) MTLQELLREEALRRAEAEAFRYALELLAEKFPEQKEYLLDLAEEIESGIRSLSGVDVEDVRKFLDKEWAWVKELLAEHPAELAEVEAARAARLAELRAEVEAKVAA | 0.718 |
| D65M (designed binder) MTLQELLREEALRRAEAEAFRYALELLAEKFPEQKEYLLDLAEEIESQIRSLSGVDVEDVRKFLMKEWAWVKELLAEHPAELAEVEAARAARLAELRAEVEAKVAA | 0.718 |
| L39Y (designed binder) MTLQELLREEALRRAEAEAFRYALELLAEKFPEQKEYLYDLAEEIESQIRSLSGVDVEDVRKFLDKEWAWVKELLAEHPAELAEVEAARAARLAELRAEVEAKVAA | 1.69 |
| E99S (designed binder) MTLQELLREEALRRAEAEAFRYALELLAEKFPEQKEYLLDLAEEIESQIRSLSGVDVEDVRKFLDKEWAWVKELLAEHPAELAEVEAARAARLAELRASVEAKVAA | 0.956 |
| A80F (designed binder) MTLQELLREEALRRAEAEAFRYALELLAEKFPEQKEYLLDLAEEIESQIRSLSGVDVEDVRKFLDKEWAWVKELLAEHPFELAEVEAARAARLAELRAEVEAKVAA | 0.539 |
| L26F (designed binder) MTLQELLREEALRRAEAEAFRYALEFLAEKFPEQKEYLLDLAEEIESQIRSLSGVDVEDVRKFLDKEWAWVKELLAEHPAELAEVEAARAARLAELRAEVEAKVAA | 0.593 |
| E46H (designed binder) MTLQELLREEALRRAEAEAFRYALELLAEKFPEQKEYLLDLAEEIHSQIRSLSGVDVEDVRKFLDKEWAWVKELLAEHPAELAEVEAARAARLAELRAEVEAKVAA | 0.539 |
| L26D (designed binder) MTLQELLREEALRRAEAEAFRYALEDLAEKFPEQKEYLLDLAEEIESQIRSLSGVDVEDVRKFLDKEWAWVKELLAEHPAELAEVEAARAARLAELRAEVEAKVAA | 0.956 |
| L6K (designed binder) MTLQEKLREEALRRAEAEAFRYALELLAEKFPEQKEYLLDLAEEIESQIRSLSGVDVEDVRKFLDKEWAWVKELLAEHPAELAEVEAARAARLAELRAEVEAKVAA | 7.07 |
| L75I (designed binder) MTLQELLREEALRRAEAEAFRYALELLAEKFPEQKEYLLDLAEEIESQIRSLSGVDVEDVRKFLDKEWAWVKELIAEHPAELAEVEAARAARLAELRAEVEAKVAA | 0.79 |
| A106V (designed binder) MTLQELLREEALRRAEAEAFRYALELLAEKFPEQKEYLLDLAEEIESQIRSLSGVDVEDVRKFLDKEWAWVKELLAEHPAELAEVEAARAARLAELRAEVEAKVAV | 0.653 |
| E58M (designed binder) MTLQELLREEALRRAEAEAFRYALELLAEKFPEQKEYLLDLAEEIESQIRSLSGVDVMDVRKFLDKEWAWVKELLAEHPAELAEVEAARAARLAELRAEVEAKVAA | 0.49 |
| G54W (designed binder) MTLQELLREEALRRAEAEAFRYALELLAEKFPEQKEYLLDLAEEIESQIRSLSWVDVEDVRKFLDKEWAWVKELLAEHPAELAEVEAARAARLAELRAEVEAKVAA | 2.73 |
| D59V (designed binder) MTLQELLREEALRRAEAEAFRYALELLAEKFPEQKEYLLDLAEEIESQIRSLSGVDVEVVRKFLDKEWAWVKELLAEHPAELAEVEAARAARLAELRAEVEAKVAA | 0.653 |
| E33H (designed binder) MTLQELLREEALRRAEAEAFRYALELLAEKFPHQKEYLLDLAEEIESQIRSLSGVDVEDVRKFLDKEWAWVKELLAEHPAELAEVEAARAARLAELRAEVEAKVAA | 0.49 |
